Results taken from the supplement of paper PMC10567573.

B1: ZNF8 (parent)
chain: SLGRHKRTHTGEKPYTCSVCGKSF
B2: CRYL1 (parent)
chain: RNALENIRKEMKLLEQAGSLKGSL

Variants of: B1
Assay: protein stability index of a GFP-peptide fusion (GPS, HEK-293T) (PSI 1-6); higher = more stable
Settings: c terminus: a fixed tail appended
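Also: lentivirally expressed fusions sorted by FACS into six bins by GFP to DsRed ratio, PSI derived from sequencing read proportions per bin multiplied by bin number.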

Protein stability index: each site, then its substitutions
P14: D 3.11; A 2.23; C 2.73
H9: D 2.79; K 3.13; M 2.59; S 2.66; L 2.18; Y 3.15; W 2.83; G 2.16; T 2.78; C 2.59; F 2.09; A 2.82; N 2.67; Q 3.98; P 2.96; E 3.06; R 2.94; I 2.84; V 2.47
R4: N 3.1; P 2.34; E 4.09; W 2.13; M 2.5; C 4.3; V 2.5; F 2.57; S 3.19; Q 2.2; I 1.89; T 3.61; H 2.85; D 3; G 3.44
L2: Q 2.25; G 2.95; F 2.61; I 2.99; C 4.3; W 2.93; A 2.71; D 3.19; N 3.82; Y 3.26; K 3.66; V 2.8; E 2.8; P 2.77; M 2.67; H 4.09; R 2.04; T 3.12
R7: F 2.83; L 2.66; P 2.98; N 3.38; I 3.39; V 3.37; Y 2.96; A 2.42; G 4.28; E 4.08; D 3.02; H 3.65; Q 2.98; W 2.8; M 2.44; C 4.55; K 3; S 3.34; T 2.32
K13: H 2.96; C 2.88; N 2.48; P 2.71; T 2.92; S 2.94; D 2.34; W 3.06; L 1.99; F 2.2; G 2.61; A 3.72; I 2.65; Q 2.71; R 2.39; E 2.39; M 2.4; Y 2.31
T10: N 3.44; E 2.86; I 2.77; A 2.84; M 2.74; H 2.98; S 3.28; G 3.3; F 1.88; K 2.84; P 2.56; C 2.08; D 3.47; Q 3.12; Y 2.18; W 2.33; R 2.32; V 2.09; L 2.19
K6: P 2.18; A 2.68; L 2.04; E 3.29; Y 3.23; W 1.94; N 2.48; D 4.27; R 2.77; F 1.82; Q 2.95; H 1.97; C 3.29; M 2.38; V 2.35; T 2.97; S 2.61; I 2.43; G 2.33
E12: S 2.64; V 2.11; R 3.19; Q 2.77; C 2.24; I 2.53; W 2.2; N 3.1; H 2.52; L 2.37; M 2.41; A 2.7; P 3.28; T 2.24; F 1.74; G 2.79; K 2.79; Y 3.15; D 2.64
T8: H 3.05; L 2.61; V 2.68; I 1.91; A 3.09; C 2.45; M 1.9; G 2.68; S 3.02; R 2.83; Q 3.17; P 2.64; E 2.97; F 2.6; N 2.44; W 2.2; D 3.45; Y 2.65; K 3.17
G3: S 1.93; W 1.98; D 3.32; A 2.12; M 2.66; V 3.78; I 3.15; E 3.41; N 2.21; L 1.21; Y 2.79; T 3.28; K 4.65; P 3.02; C 3.68; H 4.17; R 2.03
G11: R 2.53; I 2.07; H 3.29; V 1.98; K 2.9; L 2.42; Y 2.94; Q 2.53; S 2.79; E 2.51; P 2.73; C 2.77; M 2.41; A 2.17; N 2.3; T 3.09; D 3.24; W 3.56; F 2.4
S1: C 3.6; D 3.4; G 2.8; K 3.05; W 1.5; L 1.73; F 2.21; P 2.72; M 2.46; A 2.86; H 3.08; V 2.58; E 3.94; T 2.94; I 2.18; Y 2.42; Q 3.71; N 2.63; R 2.82
H5: C 3.77; L 2.26; Q 2.84; P 2.78; G 3.18; N 2.52; D 3.17; T 3.06; E 3.15; K 3.01; W 2.46; Y 2.72; I 3.34; F 1.82; S 2.35; R 3.03; V 2.54; A 2.5; M 2.6

Variants of: B2
Assay: as above
Settings: c terminus: a fixed tail appended

Protein stability index of substitutions, site by site:
K9: D 3.57; Q 3.29; I 1.48; E 3.83
L13: R 3.66; E 3.94; Q 4.5
Q16: N 3.75; A 2.93; E 3.75; G 3.7; Y 2.37
S23: G 3.4; P 3.56; H 3.12; W 1.95; M 2.27
N2: R 3.49; T 2.92; Q 3.39; L 2.88; P 4.16
S19: L 2.36
R1: F 2.46; V 3.53; A 2.86; K 3.77; W 3.34; L 3.21
I7: N 4.37; F 2.37; C 2.3
N6: H 3.38; M 2.98; F 1.68; T 2.53
G22: D 4.1; Y 2.28; P 3.51
L20: F 2.86; Y 3.9; P 4.09; K 4.55
K12: P 4.57; N 3.36
K21: F 2.35; E 3.93; N 3.34; G 2.56; V 2.73; C 3.3
R8: P 4.29; W 2.3; N 4.19; L 1.65
E10: R 1.87; H 2.68; G 2.87; C 1.83
L24: N 3.81; F 3.13; C 4.05; K 4.12; S 3.95
M11: L 3.1; C 3.37
L4: H 4.15; V 3.65
A3: E 2.94; I 2.31; N 3.75; K 3.48
L14: E 4.88; Y 3.86; Q 4.18; T 3.79; M 2.68
E5: I 3.57; M 3; Y 1.97; H 2.88; C 2.98; W 2.69; Q 3.34
A17: E 3.84; Q 4.01; R 3.38
E15: M 2.87; F 2.9; V 2.39; T 3.08
G18: S 3.41
